Reference: the RNAGym collection of RNA variant scans (doi:10.7554/elife.80360)

B1: HDV Ribozyme (parent)
chain: GGCCGGCAUGGUCCCAGCCUCCUCGCUGGCGCCGGCUGGGCAACAUUCCGAGGGGACCGUCCCCUCGGUAAUGGCGAAUGGGACCCA

Variants of: B1
Experiment: self-cleavage, relative activity (ratio to wild type); higher = more cleavage; co-transcriptional

| Variant | self-cleavage |
| --- | --- |
| C63U A70U | 0.848 |
| C64A A83C | 0.332 |
| C64A A83U | 0.511 |
| C63G A83G | 0.519 |
| C62U U79G | 0.831 |
| C62U U79C | 0.432 |
| C63A G68A | 0.801 |
| C63A G68U | 0.764 |
| C63U G80A | 0.482 |
| C63U G80U | 0.224 |
| C63U G80C | 0.218 |
| C63G C86G | 0.95 |
| C63G C66A | 0.289 |
| C63G C66G | 0.201 |
| C63U U69G | 0.875 |
| C63A A78U | 0.269 |
| C63A A78G | 0.404 |
| C63A C85A | 0.618 |
| C63A C85U | 0.911 |
| C62U G73C | 0.354 |
| C63G A78C | 0.101 |
| C63G G81U | 0.375 |
| C63G G81A | 0.453 |
| C63G G81C | 0.277 |

| Variant | self-cleavage |
| --- | --- |
| C63U A87G | 0.927 |
| C63U A87C | 0.894 |
| C63G A87C | 0.737 |
| C63G A87G | 0.858 |
| C63A U79C | 0.455 |
| C63A U79A | 0.636 |
| C62U C85U | 0.964 |
| C62U C85A | 0.847 |
| C62U C85G | 0.892 |
| C63G U72A | 0.458 |
| C63G U72C | 0.344 |
| C63A A87G | 0.946 |
| C63A A87U | 1.03 |
| C63A A87C | 1 |
| C63A G81U | 0.244 |
| C63A G81C | 0.188 |
| C63U G73A | 0.831 |
| C63A G82A | 0.408 |
| C63A G82U | 0.467 |
| C64A A71C | 0.277 |
| C64A A71U | 0.855 |
| C62U G68A | 0.946 |
| C62U G81U | 0.529 |
| C62U G81C | 0.215 |

| Variant | self-cleavage |
| --- | --- |
| C63U C85U | 1.01 |
| C63U C85A | 0.958 |
| C63U G68U | 0.8 |
| C63U G68C | 0.941 |
| C63G G73C | 0.437 |
| C63A C66U | 0.814 |
| C63A C66G | 0.494 |
| C63A C66A | 0.302 |
| C63G G80U | 0.199 |
| C63G G80C | 0.147 |
| C63A A83G | 0.712 |
| C63G C85U | 0.92 |
| C63G C85G | 1.02 |
| C63G U65C | 0.151 |
| C63G U65G | 0.277 |
| C63A C86A | 1.05 |
| C63U G76C | 0.997 |
| C63U G76A | 0.855 |
| C64A A77C | 0.344 |
| C63G C75G | 0.0489 |
| C63G C75A | 0.111 |
| C63A G76U | 1.15 |
| C63A G76A | 0.875 |
| C63A G76C | 0.976 |

| Variant | self-cleavage |
| --- | --- |
| C63A A71U | 1.11 |
| C63A A71G | 0.504 |
| C63A G74U | 0.515 |
| C63A G74C | 0.312 |
| C63A G74A | 0.478 |
| C63G C84A | 1.06 |
| C63G C84U | 0.629 |
| C63A C64G | 0.506 |
| C63A C64U | 0.903 |
| C63G A70C | 0.415 |
| C62U G67A | 1.12 |
| C63G G68U | 0.504 |
| C63G G68A | 0.366 |
| C62U G74U | 0.679 |
| C63U U72A | 0.864 |
| C63U U72G | 0.776 |
| C63U U72C | 0.751 |
| C63U C75A | 0.106 |
| C63U C75G | 0.0755 |
| C62U U72A | 0.441 |
| C62U U72G | 0.649 |
| C62U G82U | 0.402 |
| C63U U79A | 0.997 |
| C63U U79C | 0.411 |

| Variant | self-cleavage |
| --- | --- |
| C63U U79G | 0.54 |
| C63A C84A | 0.96 |
| C63A C84G | 0.759 |
| C63G G76C | 0.967 |
| C63G G76A | 0.974 |
| C63A C75U | 0.0906 |
| C63A C75A | 0.338 |
| C62U C84U | 0.819 |
| C62U C84A | 1.14 |
| C62U C84G | 0.692 |
| C63U G82A | 0.534 |
| C63U G82C | 0.192 |
| C63U G82U | 0.509 |
| C63U A83U | 0.584 |
| C63G G74A | 0.326 |
| C63G G67A | 0.372 |
| C63G G67U | 0.293 |
| C63G G67C | 0.342 |
| C63G A77U | 0.277 |
| C63G A77C | 0.58 |
| C63G A77G | 0.268 |
| C62U U69A | 1.24 |
| C63U C64G | 0.809 |
| C63U C64U | 1.08 |

| Variant | self-cleavage |
| --- | --- |
| C63U C64A | 0.831 |
| C63U G74C | 0.201 |
| C63U G74A | 0.546 |
| C64A | 0.908 |
| C64A A70C | 0.623 |
| C64A A70U | 0.752 |
| C64A A70G | 0.749 |
| C63A U72C | 0.532 |
| C63A U72A | 0.542 |
| C63A U72G | 0.369 |
| C63U C86U | 1.05 |
| C63U C86A | 0.96 |
| C62U C86G | 0.831 |
| C62U C86A | 0.82 |
| C63A U69C | 1.12 |
| C63A U69G | 0.884 |
| C63A U69A | 0.965 |
| C63A G67U | 0.451 |
| C63A G67C | 0.544 |
| C63A G67A | 0.35 |
| C63U A71C | 1.15 |
| C63A G80A | 0.388 |
| C63A A77C | 0.268 |
| C63A A77U | 0.356 |

| Variant | self-cleavage |
| --- | --- |
| C64A A78G | 0.686 |
| C64A A78C | 0.242 |
| C64A A78U | 0.285 |
| C62U G76A | 1.12 |
| C62U G76U | 1.06 |
| C63U U65G | 0.96 |
| C63U U65A | 0.849 |
| C62U C75A | 0.166 |
| C62U C75G | 0.406 |
| C62U G80U | 0.253 |
| C62U G80C | 0.281 |
| C62U G80A | 0.348 |
| C62U U65A | 1.08 |
| C63U G81A | 0.521 |
| C63U G81C | 0.151 |
| C63U C66U | 0.816 |
| C63A U65A | 0.427 |
| C63A U65C | 0.525 |
| C63A U65G | 0.914 |
| C63U A77C | 0.352 |
| C63G G82U | 0.289 |
| C63G G82A | 0.219 |
| C63G G82C | 0.136 |
